{"source": "patent US9809627B2", "about": "“Cyclized transthyretin peptide and methods of use therefor” (Wisconsin Alumni Research Foundation, priority 2014, dated 2017)", "key": {"Aβ (1-40) [1]": {"target": "T1, Aβ (1-40) (Homo sapiens, UniProt P05067)", "T1 construct": "Aβ (1-40) was purchased from Anaspec, Inc. (Fremont, Calif.) as lyophilized powder; purchased Anaspec, Inc. (Fremont, Calif.)", "assay": "Proteolytic fragmentation assay of Aβ with peptides (Proteinase K)", "assay_type": "binding", "conditions": "3:1 molar excess of peptides, detection by 4G8", "procedure": "(§1) Aβ (1-40) was purchased from Anaspec, Inc. (Fremont, Calif.) as lyophilized powder. For dynamic light scattering, ThT fluorescence assay, TEM, NTA measurement and filtration/sedimentation assay, Aβ was dissolved in 50% ACN, re-lyophilized, and reconstituted in 8M urea at 12 mg/mL. Aβ stock was then aliquoted, snap-frozen in ethanol with dry ice, and stored at −80° C. For PICUP and proteolytic fragmentation analysis, lyophilized Aβ was dissolved in prechilled hexafluoroisopropanol (HFIP, Acros Organics, Geel, Belgium), aliquoted, dried and stored at −20° C. as previously described (Cho et al., 2014). Aβ sample was prepared right before use by dissolving dried peptides in 50 mM NaOH and diluting into phosphate-buffered saline (PBSA) (10 mM Na2HPO4/NaH2PO4, 150 mM NaCL and 0.02% NaN3 (pH 7.4)) to 30 μM as previously described (Cho et al., 2014).\nThe proteolytic fragmentation assay of Aβ with peptides was performed as previously described in detail (Cho et al., 2014). Briefly, Aβ alone (20 μM) or with peptide (60 μM) was incubated for 24 hr at 37° C. Proteinase K (Promega, Madison, Wis.) was added to the samples at a final concentration of 0.5 μg/mL and samples were dotted onto a 0.45 μm nitrocellulose membrane (Pierce) after incubation for 0, 5, 10, 20, 30, 40, 50, 60, 90 and 120 min. Membranes were then reacted with monoclonal antibodies against Aβ (6E10, Covance, against Aβ (3-8) and 4G8 against Aβ (18-22)) and visualized."}, "Aβ": {"target": "T2, Aβ (Homo sapiens, UniProt P05067)", "T2 construct": "Amyloid-beta (Aβ or Abeta) denotes peptides of 36-43 amino acids", "assay": "Enzyme-linked immunoassay of Aβ binding to immobilized CG3-biotin in presence of serum proteins", "conditions": "Aβ 1, 3 or 5 μg/mL in PBS with 10% or 30% FBS", "description": "Evidence of interaction between Aβ and peptide investigated by enzyme-linked immunoassay. CG3 was synthesized with an appending polyethylene glycol (PEG) linker attached to biotin. This was achieved by replacing Val at the 3rd position with Glu and on-column addition of PEG and biotin to the Glu side chain. […] After further washing, Aβ was detected using monoclonal anti-Aβ antibody and Superclonal-HRP. […] Open symbols/dashed lines are negative control (immobilized PEG-biotin linker).\nBriefly, CG3 was synthesized with an appended flexible PEG linker and biotin. […] Aβ was prepared at 1, 3, or 5 μg/mL in PBS, or in PBS containing 10 (vol/vol) % or 30 (vol/vol) % fetal bovine serum (FBS, charcoal-treated). […] Aβ solutions were added to the CG3-coated wells and then incubated to allow binding. After washing, Aβ was detected by anti-Aβ antibody (6E10 or 4G8) and Superclonal-HRP."}, "Aβ (1-40) [2]": {"target": "T1, Aβ (1-40)", "assay": "Nanoparticle tracking (NTA) of Aβ aggregates", "assay_type": "biochemical", "conditions": "28 μM Aβ, 10:1 Aβ:peptide molar ratio", "procedure": "as §1\nNTA measurements were taken with a Nanosight LM10 (Nanosight, Amesbury, U.K.) equipped with a 405 nm laser as previously described (Yang et al., 2013). Aβ alone (28 μM) or with CG3 (2.8 μM) were prepared in PBSA and incubated for 5 hr at 37° C. Three 60 s video were taken for each sample."}, "Aβ (1-40) [3]": {"target": "T1, Aβ (1-40)", "assay": "Transmission electron microscopy of Aβ aggregates", "assay_type": "biochemical", "conditions": "48 h at 37° C., 28 μM Aβ, 2.8 μM peptide", "procedure": "as §1\nAβ alone (28 μM) or with peptides (G16 or CG3 at 2.8 μM) were prepared in PBSA and incubated for 48 hr at 37° C. A drop of sample was placed on a pioloform-coated grid and stained with methylamine tungstate stain. Images were taken with a Philips CM120 scanning transmission electron microscope (FEI Corp., Eindhoven, The Netherlands)."}}, "note": "Entries after “also recorded” stand apart in the source; their conditions may differ. Where no end group is shown, it is not given here. [ ]: non-standard residue; d: D form."}
{"substance": "SKVVT^DPPRYTIAALLSPYSYSQ [CG3] (chain 1 SKVVT[dP]PRYTIAALLSPYSYSQ; chain 2 SKVVT[dP]PRYTIAALLSPYSYSQ; also: head-to-tail to a chain's N/C-terminus) [cyclic 22-mer of TTR residues 104-123 grafted onto DPro-Pro template]", "values": [{"measurement": "effect on Aβ degradation by protease", "setting": "Aβ (1-40) [1]", "value": "Aβ degradation was delayed; also recorded: most effective in inhibiting degradation"}, {"measurement": "binding of Aβ to immobilized peptide", "setting": "Aβ", "value": "serum proteins do not interfere with Aβ binding"}, {"measurement": "size of particles detected", "setting": "Aβ (1-40) [2]", "value": "very large (microns)"}, {"measurement": "morphology of Aβ aggregates by TEM", "setting": "Aβ (1-40) [3]", "value": "strikingly lower density of aggregates"}]}
